This experiment relates to human brain endothelial cells (HBEC). Description: Confocal microscopy internalization. The experiment is classed as cell-based. To be noted: 100 nM AF647-CBP-4, 90 min (labelled IGFBP-4: unpublished observation). How it is done:
HBEC (100000 cell/well in a 24-well format plate) were seeded on human fibronectin- (40 μg/ml) coated cover slips (Bellco Biotechnology) in 400 μl HBEC media and grown until reached 80% confluence. Cells were then washed twice with D-MEM and incubated in D-MEM for 30 min at 37 C. Then, D-MEM was removed and replaced with 250 μl/well of D-MEM containing 100 nM AF647-CBP-4 conjugate for 90 min and then washed with PBS. Cells were counterstained with the membrane dye DiOC5(3) for 15 seconds and then washed with PBS. Imaging of cells was performed using Zeiss LSM 410 (Carl Zeiss, Thornwood, N.Y., USA) inverted laser scanning microscope equipped with an Argon\Krypton ion laser and a Plan-Apochromat 63X, NA 1.4. Confocal images of two fluoroprobes were sequentially obtained using 488 and 647 nm excitation laser lines to detect DiOC5(3) (510-525 nm emission) and Alexa 647 fluorescence (670-810 nm emission).

Results on 1 molecule are retold here after US20090048158A1, “Insulin-Like Growth Factor Binding Protein-4 Compounds and Methods for Inhibiting Angiogenesis and Tumor Growth in Mammalian Cells” (priority 2005, published 2009).

B1: fluorescently-labeled IGFBP-4: fluorescently-labeled IGFBP-4, unpublished observations (conjugate, UniProt P22692 22-258, looked up)
Insulin-like growth …: DEAIHCPPCSEEKLARCRPPVGCEELVREPGCGCCATCALGLGMPCGVYTPRCGSGLRCYPPRGVEKPLHTLMHGQGVCMELAEIEAIQESLQPSDKDEGDHPNNSFSPCSAHDRRCLQKHFAKIRDRSTSGGKMKVNGAPREDARPVPQGSCQSELHRALERLAASQSRTHEDLYIIPIPNCDRNGNFHPKQCHPALDGQRGKCWCVDRKTGVKLPGGLEPKGELDCHQLADSFRE
modifications: fluorescent label
notes: fluorescently-labeled IGFBP-4, unpublished observations
As for B1, the “internalization into HBEC” value was “internalized into HBEC”.
